Data: US20120034161A1, “PRETARGETING KIT, METHOD AND AGENTS USED THEREIN” (KONINKLIJKE PHILIPS ELECTRONICS N.V., priority 2009, published 2012)

Tested on: human colon cancer cell line LS174T
Details: mouse, in vivo

Substance: Rtx-TCO: TCO-modified rituximab for control in vivo experiments; lacks specificity for TAG72
- 125I-mAb in tumor: 6.3±1.2 % ID/g
